± gives the uncertainty stated by the source.
B1: POU domain, class 3, transcription factor 2, residues 356 to 411; numbered along this chain, P20265 (parent)
chain: KKRTSIEVSVKGALESHFLKCPKPSAQEITSLADSLQLEKEVVRVWFCNRRQKEKR
B2: GA-binding protein alpha chain, residues 172 to 250; numbered along this chain, Q06546 (parent)
chain: GYRKEQERLGIPYDPIQWSTDQVLHWVVWVMKEFSMTDIDLTTLNISGRELCSLNQEDFFQRVPRGEILWSHLELLRKY

Variants of: B1
Test: abundance fitness (aPCA) (normalised: wild type 0, dead -1); higher = more abundant; growth selection in yeast, the domain comes from the species named
Conditions: Homo sapiens

In order of rising abundance fitness:
1. KKRTSIEVSVKGALESHFLKCPKPSAQEITSLADSLQLEKEVVRVWFCNRRQAEKR [K53A]  -0.602 ± 0.34
2. KKRTSIEVSVKGALESHFLKCPKPSAQEITSLADSLQLEKEVVRVWFCNRRQYEKR [K53Y]  -0.545 ± 0.29
3. KKRTSIEVSVKGALESHFLKCPKPSAQEITSLADSLQLEKEVVRVWFCNRRQVEKR [K53V]  -0.517 ± 0.35
4. KKRTSIEVSVKGALESHFLKCPKPSAQEITSLADSLQLEKEVVRVWFCNRRQREKR [K53R]  -0.457 ± 0.31
5. KKRTSIEVSVKGALESHFLKCPKPSAQEITSLADSLQLEKEVVRVWFCNRRQKEPR [K55P]  -0.396 ± 0.16
6. KKRTSIEVSVKGALESHFLKCPKPSAQEITSLADSLQLEKEVVRVWFCNRRQKECR [K55C]  -0.33 ± 0.16
7. KKRTSIEVSVKGALESHFLKCPKPSAQEITSLADSLQLEKEVVRVWFCNRRQKEHR [K55H]  -0.274 ± 0.25
8. KKRTSIEVSVKGALESHFLKCPKPSAQEITSLADSLQLEKEVVRVWFCNRRQKEQR [K55Q]  -0.244 ± 0.2
9. KKRTSIEVSVKGALESHFLKCPKPSAQEITSLADSLQLEKEVVRVWFCNRRQDEKR [K53D]  -0.234 ± 0.26
10. KKRTSIEVSVKGALESHFLKCPKPSAQEITSLADSLQLEKEVVRVWFCNRRQKERR [K55R]  -0.211 ± 0.11
11. KKRTSIEVSVKGALESHFLKCPKPSAQEITSLADSLQLEKEVVRVWFCNRRQHEKR [K53H]  -0.204 ± 0.49
12. KKRTSIEVSVKGALESHFLKCPKPSAQEITSLADSLQLEKEVVRVWFCNRRQKEWR [K55W]  -0.187 ± 0.13
13. KKRTSIEVSVKGALESHFLKCPKPSAQEITSLADSLQLEKEVVRVWFCNRRQLEKR [K53L]  -0.18 ± 0.18
14. KKRTSIEVSVKGALESHFLKCPKPSAQEITSLADSLQLEKEVVRVWFCNRRQKEFR [K55F]  -0.167 ± 0.14
15. KKRTSIEVSVKGALESHFLKCPKPSAQEITSLADSLQLEKEVVRVWFCNRRQKEVR [K55V]  -0.116 ± 0.1
16. KKRTSIEVSVKGALESHFLKCPKPSAQEITSLADSLQLEKEVVRVWFCNRRQGEKR [K53G]  -0.112 ± 0.44
17. KKRTSIEVSVKGALESHFLKCPKPSAQEITSLADSLQLEKEVVRVWFCNRRQKELR [K55L]  -0.087 ± 0.084
18. KKRTSIEVSVKGALESHFLKCPKPSAQEITSLADSLQLEKEVVRVWFCNRRQKEMR [K55M]  -0.056 ± 0.14
19. KKRTSIEVSVKGALESHFLKCPKPSAQEITSLADSLQLEKEVVRVWFCNRRQKENR [K55N]  -0.046 ± 0.15
20. KKRTSIEVSVKGALESHFLKCPKPSAQEITSLADSLQLEKEVVRVWFCNRRQKEIR [K55I]  -0.036 ± 0.13
21. KKRTSIEVSVKGALESHFLKCPKPSAQEITSLADSLQLEKEVVRVWFCNRRQKETR [K55T]  -0.029 ± 0.13
22. KKRTSIEVSVKGALESHFLKCPKPSAQEITSLADSLQLEKEVVRVWFCNRRQKEGR [K55G]  -0.029 ± 0.1
23. KKRTSIEVSVKGALESHFLKCPKPSAQEITSLADSLQLEKEVVRVWFCNRRQKEYR [K55Y]  -0.019 ± 0.14
24. KKRTSIEVSVKGALESHFLKCPKPSAQEITSLADSLQLEKEVVRVWFCNRRQKEKN [R56N]  0.008 ± 0.42
25. KKRTSIEVSVKGALESHFLKCPKPSAQEITSLADSLQLEKEVVRVWFCNRRQTEKR [K53T]  0.024 ± 0.26
26. KKRTSIEVSVKGALESHFLKCPKPSAQEITSLADSLQLEKEVVRVWFCNRRQKESR [K55S]  0.024 ± 0.099
27. KKRTSIEVSVKGALESHFLKCPKPSAQEITSLADSLQLEKEVVRVWFCNRRQCEKR [K53C]  0.025 ± 0.47
28. KKRTSIEVSVKGALESHFLKCPKPSAQEITSLADSLQLEKEVVRVWFCNRRQKEDR [K55D]  0.036 ± 0.16
29. KKRTSIEVSVKGALESHFLKCPKPSAQEITSLADSLQLEKEVVRVWFCNRRQKEER [K55E]  0.093 ± 0.14
30. KKRTSIEVSVKGALESHFLKCPKPSAQEITSLADSLQLEKEVVRVWFCNRRQMEKR [K53M]  0.11 ± 0.29
31. KKRTSIEVSVKGALESHFLKCPKPSAQEITSLADSLQLEKEVVRVWFCNRRQKEAR [K55A]  0.139 ± 0.12

Variants of: B2
Test: as above
Conditions: Homo sapiens

In order of falling abundance fitness:
1. RYRKEQERLGIPYDPIQWSTDQVLHWVVWVMKEFSMTDIDLTTLNISGRELCSLNQEDFFQRVPRGEILWSHLELLRKY [G1R]  0.091 ± 0.13
2. MYRKEQERLGIPYDPIQWSTDQVLHWVVWVMKEFSMTDIDLTTLNISGRELCSLNQEDFFQRVPRGEILWSHLELLRKY [G1M]  0.045 ± 0.28
3. GYEKEQERLGIPYDPIQWSTDQVLHWVVWVMKEFSMTDIDLTTLNISGRELCSLNQEDFFQRVPRGEILWSHLELLRKY [R3E]  -0.004 ± 0.075
4. QYRKEQERLGIPYDPIQWSTDQVLHWVVWVMKEFSMTDIDLTTLNISGRELCSLNQEDFFQRVPRGEILWSHLELLRKY [G1Q]  -0.047 ± 0.2
5. GYFKEQERLGIPYDPIQWSTDQVLHWVVWVMKEFSMTDIDLTTLNISGRELCSLNQEDFFQRVPRGEILWSHLELLRKY [R3F]  -0.058 ± 0.096
6. AYRKEQERLGIPYDPIQWSTDQVLHWVVWVMKEFSMTDIDLTTLNISGRELCSLNQEDFFQRVPRGEILWSHLELLRKY [G1A]  -0.1 ± 0.061
7. SYRKEQERLGIPYDPIQWSTDQVLHWVVWVMKEFSMTDIDLTTLNISGRELCSLNQEDFFQRVPRGEILWSHLELLRKY [G1S]  -0.135 ± 0.14
8. TYRKEQERLGIPYDPIQWSTDQVLHWVVWVMKEFSMTDIDLTTLNISGRELCSLNQEDFFQRVPRGEILWSHLELLRKY [G1T]  -0.156 ± 0.26
9. EYRKEQERLGIPYDPIQWSTDQVLHWVVWVMKEFSMTDIDLTTLNISGRELCSLNQEDFFQRVPRGEILWSHLELLRKY [G1E]  -0.164 ± 0.057
10. GYGKEQERLGIPYDPIQWSTDQVLHWVVWVMKEFSMTDIDLTTLNISGRELCSLNQEDFFQRVPRGEILWSHLELLRKY [R3G]  -0.176 ± 0.031
11. GYCKEQERLGIPYDPIQWSTDQVLHWVVWVMKEFSMTDIDLTTLNISGRELCSLNQEDFFQRVPRGEILWSHLELLRKY [R3C]  -0.206 ± 0.055
12. GYAKEQERLGIPYDPIQWSTDQVLHWVVWVMKEFSMTDIDLTTLNISGRELCSLNQEDFFQRVPRGEILWSHLELLRKY [R3A]  -0.268 ± 0.045
13. GYDKEQERLGIPYDPIQWSTDQVLHWVVWVMKEFSMTDIDLTTLNISGRELCSLNQEDFFQRVPRGEILWSHLELLRKY [R3D]  -0.499 ± 0.26
14. LYRKEQERLGIPYDPIQWSTDQVLHWVVWVMKEFSMTDIDLTTLNISGRELCSLNQEDFFQRVPRGEILWSHLELLRKY [G1L]  -0.634 ± 0.28
